Results reported in patent US20240245796A1, “LINKERS, DRUG LINKERS AND CONJUGATES THEREOF AND METHODS OF USING THE SAME” (ProfoundBio US Co., priority 2021, published 2024).

Test system: Hela cells
Assay: Flow cytometry binding to Hela cells
Format: cell-based
Details: transfection supernatant, FIG. 6
Description: The binding activity of the antibodies to Hela cells (ATCC® CCL-2, provided by COBIOER) and to RPTEC/TERT1 cells (ATCC® CRL-4031, provided by COBIOER) was tested by flow cytometry using the transfection supernatants. Briefly, target cells were digested with 0.02% EDTA-2Na, centrifuged at 1500 rpm for 3 mins, and resuspended with PBS. After counting, the cells were added to a 1.5 ml centrifuge tube with 1×10^6 cells per tube, centrifuged at 1500 rpm for 5 minutes, and the supernatant was discarded. Then all the operations were carried out on an ice bath. 100 μL of transfection supernatant was added to each 1.5 ml centrifuge tube. Blank cells, blank cells plus secondary antibody, medium and HEK293 supernatant were set up as the controls. The reaction was performed on an ice bath for 1 hour. Then the cells were pelleted and washed twice with PBS. The secondary antibody, goat anti-Human IgG (PE, abcam, ab98596), was diluted (1:200) and added using 100 μL per tube. The reaction was performed on an ice bath for 1 hour in the dark. The cells were pelleted again and washed twice with PBS, resuspended in 300 μL PBS, and FL2 fluorescence readings were measured by cytometry. The results were analyzed by FlowJoTM10 software.
Anti-FOLR1 antibody binding to Hela and RPTEC/TERT1 cells was tested by FACS. The study was carried out as described above. […]

B1: F40: anti-FOLR1 antibody clone; "Clone F40 has a different HCDRs and LCDRs, and with different HFR and LFR" (antibody, V domains shown)
VH: EVQLLESGGGVVQPGRSLRLSCAASGFTFSSYAMHWVRQAPGKGLEWVAVISYDGSNKYYADSVKGRFIISRDNSKNTVYLQMNSLRAEDTAVYYCARPTYVFTYTGSSFDYWGQGTQVTVSS
VL: DIQVTQSPSSLSASLGDTVSITCRASRGLTDSVAWYQQKPGQAPKLLIYAASTLQSGVPSRFGGSGSGSYFTLTITSLQPEDVATYYCQNYKSAPWTFGQGTKVEIK
  Hela cell binding: weakly positive
